Laboratory results from patent US20060062729A1, “Enhanced ligand binding to neurotensin receptors” (priority 2004, published 2006).
Blank lines part the entries; values can stand above or below the compound they belong to. Non-standard residues stand in square brackets, D forms with d. Residues, ends and D or L forms follow the SMILES beside them. *: point of attachment. PhAc = O=C(Cc1ccccc1)*

Assays:
[1] = target: T1, bombesin receptor (Homo sapiens, UniProt P30550); assay: ^125I-[Nle^14]-bombesin binding to PC3 cells; settings: 37° C.
T1 construct: endogenous in cells; host or cells: PC3 cells (ATCC)
T1 sequence (P30550 whole entry): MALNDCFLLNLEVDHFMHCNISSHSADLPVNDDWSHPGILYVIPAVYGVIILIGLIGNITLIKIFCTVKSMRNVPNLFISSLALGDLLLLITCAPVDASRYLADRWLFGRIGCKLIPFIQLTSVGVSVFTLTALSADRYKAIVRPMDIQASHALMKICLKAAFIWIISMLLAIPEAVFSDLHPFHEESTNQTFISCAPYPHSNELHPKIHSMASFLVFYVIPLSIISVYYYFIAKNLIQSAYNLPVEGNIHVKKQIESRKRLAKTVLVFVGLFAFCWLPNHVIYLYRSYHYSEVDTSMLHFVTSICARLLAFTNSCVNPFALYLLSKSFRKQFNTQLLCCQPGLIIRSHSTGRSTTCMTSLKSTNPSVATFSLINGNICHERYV

[2] = target: T2, 5-LOX (Homo sapiens, UniProt P09917); settings: range of reported values, various blood cell systems; cited from earlier work
T2 sequence (P09917 1-674): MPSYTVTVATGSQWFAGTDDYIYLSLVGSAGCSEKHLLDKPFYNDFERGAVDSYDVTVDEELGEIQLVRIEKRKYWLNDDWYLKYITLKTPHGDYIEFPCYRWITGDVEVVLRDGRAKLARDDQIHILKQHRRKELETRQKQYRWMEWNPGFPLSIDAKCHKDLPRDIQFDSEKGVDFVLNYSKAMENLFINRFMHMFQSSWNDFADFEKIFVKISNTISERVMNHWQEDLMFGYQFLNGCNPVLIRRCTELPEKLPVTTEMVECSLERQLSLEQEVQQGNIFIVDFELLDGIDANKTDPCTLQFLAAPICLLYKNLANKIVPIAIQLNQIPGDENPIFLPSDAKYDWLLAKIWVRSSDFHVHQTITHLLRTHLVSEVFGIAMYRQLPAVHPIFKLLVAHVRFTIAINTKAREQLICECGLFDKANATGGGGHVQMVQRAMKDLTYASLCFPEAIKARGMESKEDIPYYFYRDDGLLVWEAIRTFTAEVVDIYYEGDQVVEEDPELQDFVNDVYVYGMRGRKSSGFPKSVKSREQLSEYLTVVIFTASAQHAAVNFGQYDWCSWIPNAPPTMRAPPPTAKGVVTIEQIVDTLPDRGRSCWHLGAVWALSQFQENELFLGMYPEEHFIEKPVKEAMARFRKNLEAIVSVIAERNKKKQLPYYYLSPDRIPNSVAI

[3] = target: T3, NTR1 (Homo sapiens, UniProt P30989); assay: ^125I-NT binding to isolated PC3 cell membranes; design: Ab-NTR1 detected two major bands in extracts of PC3 cells, the parent protein of 50 kDa; endogenous in cells; host or cells: PC3 cells (ATCC)
T3 sequence (P30989 whole entry): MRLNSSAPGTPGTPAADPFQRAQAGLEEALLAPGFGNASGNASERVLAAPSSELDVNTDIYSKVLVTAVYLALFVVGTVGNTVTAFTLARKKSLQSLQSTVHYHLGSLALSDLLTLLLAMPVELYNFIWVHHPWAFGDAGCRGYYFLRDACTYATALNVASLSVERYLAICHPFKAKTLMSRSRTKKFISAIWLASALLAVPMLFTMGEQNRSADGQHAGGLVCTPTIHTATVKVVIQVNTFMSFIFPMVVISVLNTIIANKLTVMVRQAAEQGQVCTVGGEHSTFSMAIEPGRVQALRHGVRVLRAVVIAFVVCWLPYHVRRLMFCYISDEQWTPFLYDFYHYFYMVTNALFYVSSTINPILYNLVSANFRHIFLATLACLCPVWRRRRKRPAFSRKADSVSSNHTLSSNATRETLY

[4] = target: T3, NTR1; assay: ^125I-NT binding to PC3 cells; settings: LOX blockers
[5] = target: T4, vasopressin (V1a) receptor (Homo sapiens, UniProt P37288); assay: ^125I-HOLVA binding to PC3 cells
T4 construct: endogenous in cells; host or cells: PC3 cells (ATCC)
T4 sequence (P37288 whole entry): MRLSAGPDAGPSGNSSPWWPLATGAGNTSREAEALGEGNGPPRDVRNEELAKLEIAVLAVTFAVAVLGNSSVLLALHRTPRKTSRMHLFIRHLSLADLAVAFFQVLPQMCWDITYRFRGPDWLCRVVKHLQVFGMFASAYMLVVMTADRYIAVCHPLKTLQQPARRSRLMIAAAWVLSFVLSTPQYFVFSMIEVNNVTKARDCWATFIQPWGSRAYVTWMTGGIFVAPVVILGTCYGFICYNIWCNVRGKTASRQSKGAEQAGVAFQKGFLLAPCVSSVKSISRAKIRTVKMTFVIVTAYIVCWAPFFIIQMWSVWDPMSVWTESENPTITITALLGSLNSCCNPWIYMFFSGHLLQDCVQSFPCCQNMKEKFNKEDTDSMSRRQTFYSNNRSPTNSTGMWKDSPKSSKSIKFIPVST

[6] = target: bombesin receptor of PC3 cells; assay: 125I-ligand binding to PC3 cells, 37 C, with 12 µM Rev-5901
bombesin receptor of PC3 cells, sequence (P30550 whole entry): as the sequence (P30550 whole entry) above

[7] = target: bombesin receptor of PC3 cells; assay: Scatchard analysis, PC3 cells
[8] = target: bombesin receptor of PC3 cells; assay: 125I-ligand binding to PC3 cells with 12 µM SKF-96365
[9] = target: bombesin receptor of PC3 cells; assay: 125I-ligand binding to PC3 cells with 60 µM phloretin
[10] = target: bombesin receptor of PC3 cells
[11] = target: bombesin receptor of PC3 cells; assay: 125I-ligand binding to PC3 cells with 12 µM NIF
[12] = target: bombesin receptor of PC3 cells; assay: 125I-ligand binding to PC3 cells with 60 µM SKF-96365
[13] = target: bombesin receptor of PC3 cells; assay: 125I-ligand binding to PC3 cells with 60 µM verapamil
[14] = target: bombesin receptor of PC3 cells; assay: 125I-ligand binding to PC3 cells with 12 µM verapamil
[15] = target: bombesin receptor of PC3 cells; assay: 125I-ligand binding to PC3 cells, 37 C, with 60 µM NDGA
[16] = target: bombesin receptor of PC3 cells; assay: 125I-ligand binding to PC3 cells with 12 µM phloretin
[17] = target: bombesin receptor of PC3 cells; assay: 125I-ligand binding to PC3 cells, 37 C, with 12 µM MK886
[18] = target: bombesin receptor of PC3 cells; assay: 125I-ligand binding to PC3 cells, 37 C, with 12 µM AA-861
[19] = target: bombesin receptor of PC3 cells; assay: 125I-ligand binding to PC3 cells, 37 C, with 60 µM AA-861
[20] = target: bombesin receptor of PC3 cells; assay: 125I-ligand binding to PC3 cells, 37 C, with 60 µM MK886
[21] = target: bombesin receptor of PC3 cells; assay: 125I-ligand binding to PC3 cells
[22] = target: bombesin receptor of PC3 cells; assay: 125I-ligand binding to PC3 cells, 37 C, with 12 µM NDGA
[23] = target: bombesin receptor of PC3 cells; assay: 125I-ligand binding to PC3 cells, 37 C, with 60 µM Rev-5901
[24] = target: bombesin receptor of PC3 cells; assay: 125I-ligand binding to PC3 cells with 60 µM NIF
[25] = target: neurotensin receptor NTR1 of PC3 cells (human) (UniProt P30989); assay: UV crosslinking to PC3 cells with phloretin, immunoprecipitation with Ab-NTR1
neurotensin receptor NTR1 of PC3 cells (human), sequence (P30989 whole entry): as the sequence (P30989 whole entry) above

[26] = target: neurotensin receptor NTR1 of PC3 cells (human) (UniProt P30989); assay: UV crosslinking to PC3 cells with NIF, immunoprecipitation with Ab-NTR1
[27] = target: neurotensin receptor NTR1 of PC3 cells (human) (UniProt P30989); assay: UV crosslinking to PC3 cells with 50 µM NDGA, immunoprecipitation with antiserum to NTR1
[28] = target: neurotensin receptor NTR1 of PC3 cells (human) (UniProt P30989); assay: UV crosslinking to PC3 cells with verapamil, immunoprecipitation with Ab-NTR1
[29] = target: neurotensin receptor NTR1 of PC3 cells (human) (UniProt P30989); assay: UV crosslinking to PC3 cells with 50 µM MK886, immunoprecipitation with antiserum to NTR1
[30] = target: vasopressin (V1a) receptor of PC3 cells (UniProt P37288); assay: 125I-ligand binding to PC3 cells, 37 C, with 12 µM Rev-5901
vasopressin (V1a) receptor of PC3 cells, sequence (P37288 whole entry): as the sequence (P37288 whole entry) above

[31] = target: vasopressin (V1a) receptor of PC3 cells (UniProt P37288); assay: 125I-HOLVA binding to PC3 cell membranes with 60 µM verapamil
[32] = target: vasopressin (V1a) receptor of PC3 cells (UniProt P37288); assay: Scatchard analysis, PC3 cells
[33] = target: vasopressin (V1a) receptor of PC3 cells (UniProt P37288); assay: 125I-HOLVA binding to PC3 cell membranes with 60 µM NIF
[34] = target: vasopressin (V1a) receptor of PC3 cells (UniProt P37288); assay: 125I-ligand binding to PC3 cells with 12 µM SKF-96365
[35] = target: vasopressin (V1a) receptor of PC3 cells (UniProt P37288); assay: 125I-ligand binding to PC3 cells with 60 µM phloretin
[36] = target: vasopressin (V1a) receptor of PC3 cells (UniProt P37288)
[37] = target: vasopressin (V1a) receptor of PC3 cells (UniProt P37288); assay: 125I-ligand binding to PC3 cells with 12 µM NIF
[38] = target: vasopressin (V1a) receptor of PC3 cells (UniProt P37288); assay: 125I-ligand binding to PC3 cells with 60 µM SKF-96365
[39] = target: vasopressin (V1a) receptor of PC3 cells (UniProt P37288); assay: 125I-ligand binding to PC3 cells with 60 µM verapamil
[40] = target: vasopressin (V1a) receptor of PC3 cells (UniProt P37288); assay: 125I-ligand binding to PC3 cells with 12 µM verapamil
[41] = target: vasopressin (V1a) receptor of PC3 cells (UniProt P37288); assay: 125I-ligand binding to PC3 cells, 37 C, with 60 µM NDGA
[42] = target: vasopressin (V1a) receptor of PC3 cells (UniProt P37288); assay: 125I-ligand binding to PC3 cells with 12 µM phloretin
[43] = target: vasopressin (V1a) receptor of PC3 cells (UniProt P37288); assay: 125I-ligand binding to PC3 cells, 37 C, with 12 µM MK886
[44] = target: vasopressin (V1a) receptor of PC3 cells (UniProt P37288); assay: 125I-ligand binding to PC3 cells, 37 C, with 12 µM AA-861
[45] = target: vasopressin (V1a) receptor of PC3 cells (UniProt P37288); assay: 125I-HOLVA binding to PC3 cell membranes with 60 µM SKF-96365
[46] = target: vasopressin (V1a) receptor of PC3 cells (UniProt P37288); assay: 125I-ligand binding to PC3 cells, 37 C, with 60 µM AA-861
[47] = target: vasopressin (V1a) receptor of PC3 cells (UniProt P37288); assay: 125I-ligand binding to PC3 cells, 37 C, with 60 µM MK886
[48] = target: vasopressin (V1a) receptor of PC3 cells (UniProt P37288); assay: 125I-ligand binding to PC3 cells
[49] = target: vasopressin (V1a) receptor of PC3 cells (UniProt P37288); assay: 125I-ligand binding to PC3 cells, 37 C, with 12 µM NDGA
[50] = target: vasopressin (V1a) receptor of PC3 cells (UniProt P37288); assay: 125I-ligand binding to PC3 cells, 37 C, with 60 µM Rev-5901
[51] = target: vasopressin (V1a) receptor of PC3 cells (UniProt P37288); assay: 125I-ligand binding to PC3 cells with 60 µM NIF

Specific Binding (% control) [6]: 107 % control
Bmax [7]: 1020 fmol/mg
Specific Binding (% control) [8]: 99 % control
Specific Binding (% control) [9]: 111 % control
Ki [10]: 0.6 nM
Specific Binding (% control) [11]: 108 % control
Specific Binding (% control) [12]: 106 % control
Specific Binding (% control) [13]: 104 % control
Specific Binding (% control) [14]: 104 % control
Specific Binding (% control) [15]: 127 % control
Specific Binding (% control) [16]: 104 % control
Specific Binding (% control) [17]: 106 % control
Specific Binding (% control) [18]: 112 % control
Specific Binding (% control) [19]: 135 % control
Specific Binding (% control) [20]: 125 % control
Specific Binding (% of total) [21]: 95 % of total
Specific Binding (% control) [22]: 110 % control
Specific Binding (% control) [23]: 119 % control
Specific Binding (% control) [24]: 119 % control
Compound: [Tyr^4, Nle^14]-bombesin (peptide)

Specific Binding (% control) [30]: 68 % control
Binding (% control) [31]: 91 % control
Bmax [32]: 156 fmol/mg
Binding (% control) [33]: 90 % control
Specific Binding (% control) [34]: 80 % control
Specific Binding (% control) [35]: 73 % control
Ki [36]: 0.5 nM
Specific Binding (% control) [37]: 95 % control
Specific Binding (% control) [38]: 50 % control
Specific Binding (% control) [39]: 58 % control
Specific Binding (% control) [40]: 85 % control
Specific Binding (% control) [41]: 50 % control
Specific Binding (% control) [42]: 92 % control
Specific Binding (% control) [43]: 93 % control
Specific Binding (% control) [44]: 87 % control
Binding (% control) [45]: 110 % control
Specific Binding (% control) [46]: 57 % control
Specific Binding (% control) [47]: 67 % control
Specific Binding (% of total) [48]: 77 % of total
Specific Binding (% control) [49]: 84 % control
Specific Binding (% control) [50]: 42 % control
Specific Binding (% control) [51]: 59 % control
Compound: des-Gly-[Phaa1, D-Tyr(Et)2, Lys6, Arg8]-vasopressin (HOLVA) (peptide)

The next lines start with the compound.

Compound: CC1=C(C)C(=O)C(CCCCC#CCCCC#CCO)=C(C)C1=O [AA861]
Specific Binding (% control) of ^125I-[Nle14]-bombesin ([1]; 12 μM LOX blocker): 112 ± 4 % control
Specific Binding (% control) of ^125I-[Nle14]-bombesin ([1]; 60 μM LOX blocker): 135 ± 6 % control
IC50 [2]: 100 to 2000 nM
Specific NT-Binding (% control) ([3]; 10 μM LOX pathway blocker): 107 ± 4 % control
Specific NT-Binding (% control) ([3]; 25 μM LOX pathway blocker): 109 ± 4 % control
Specific NT-Binding (% control) ([3]; 75 μM LOX pathway blocker): 110 ± 5 % control

Compound: CCNC(=O)[C@H]1O[C@@H](n2cnc3c(N)nc(NCCc4ccc(CCC(=O)O)cc4)nc32)[C@H](O)[C@@H]1O [CGS21683]
IC50 [2]: 10 to 1000 nM
NT Binding Efficacy % increase [4]: 228 % increase

Compound: CCCCCC#CCC#CCC#CCC#CCCCC(=O)O [ETYA, 5,8,11,14-eicosatetraynoic acid]
IC50 [2]: 6000 to 50000 nM

Compound: CCOc1ccc(C[C@@H](NC(=O)Cc2ccccc2)C(=O)N[C@@H](Cc2ccccc2)C(=O)N[C@@H](CCC(N)=O)C(=O)N[C@@H](CC(N)=O)C(=O)N[C@@H](CCCCN)C(=O)N2CCC[C@H]2C(=O)N[C@@H](CCCNC(=N)N)C(N)=O)cc1 [^125I-HOLVA, des-Gly-[Phaa1, D-Tyr(Et)2, Lys6, Arg8]-vasopressin] (PhAc-[dY](Et)FQNKPR-NH2; N-terminus and C-terminus assumed)
Specific Binding (% of total) ([5]; 10^5 cpm ^125I-ligand): 77 % of total
Bmax ([5]; Scatchard analysis): 156 ± 12 fmol/mg

Compound: ^125I-[4-azido-Phe^6]-NT (peptide)
fold increase in radioactivity associated with NTR1 [25]: 1.8 fold
fold increase in radioactivity associated with NTR1 [26]: 2.8 fold
fold increase in radioactivity associated with NTR1 [27]: 2.6 fold
fold increase in radioactivity associated with NTR1 [28]: 1.5 fold
fold increase in radioactivity associated with NTR1 [29]: 2.7 fold
